Experimental data as given in the RNAGym collection of RNA variant scans (doi:10.7554/elife.80360).

B1: Twister Ribozyme (parent)
chain: AACACUGCCAAUGCCGGUCCCAAGCCCGGAUAAAAGUGGAGGGGGCGG

Variants of: B1
Assay: self-cleavage, relative activity (ratio to wild type); higher = more cleavage; co-transcriptional
A11U G43C gave a self-cleavage of 0.234.
For A11U U18G, the self-cleavage was 0.0666.
U12C G24A gave a self-cleavage of 0.0718.
In the case of A11U G39U, the self-cleavage is reported as 0.279.
For A11U G39C, the self-cleavage was 0.149.
Variant U12A A33U has a self-cleavage of 1.14.
In the case of U12C A30U, the self-cleavage is reported as 1.04.
Variant U12C A30G has a self-cleavage of 0.712.
U12A G29A showed a self-cleavage of 1.11.
U12A G29U showed a self-cleavage of 1.13.
U12C C27U gave a self-cleavage of 0.951.
U12A G42C showed a self-cleavage of 0.601.
Variant U12A G42U has a self-cleavage of 0.427.
For U12A G42A, the self-cleavage was 0.463.
For A11U C46G, the self-cleavage was 0.978.
Work on A11U C46U yielded a self-cleavage of 0.914.
Variant U12A G38U has a self-cleavage of 1.01.
Work on A11U U37G yielded a self-cleavage of 0.953.
In the case of A11U U37C, the self-cleavage is reported as 0.583.
A11U U37A gave a self-cleavage of 1.01.
U12C C25U gave a self-cleavage of 0.736.
For U12C C25A, the self-cleavage was 0.122.
In the case of U12A G41U, the self-cleavage is reported as 0.772.
With U12A A40C the self-cleavage was 0.291.
For U12C U31A, the self-cleavage was 0.78.
U12C U31G showed a self-cleavage of 0.954.
Variant U12A G43C has a self-cleavage of 0.255.
For U12C C19A, the self-cleavage was 0.314.
U12C C19G gave a self-cleavage of 0.428.
Work on U12A A34C yielded a self-cleavage of 0.36.
For U12C G47A, the self-cleavage was 0.785.
In the case of U12A C21G, the self-cleavage is reported as 0.122.
Variant U12A C21U has a self-cleavage of 0.164.
With A11U G47A the self-cleavage was 0.937.
Work on U12C U37C yielded a self-cleavage of 0.624.
A11U G38C showed a self-cleavage of 1.08.
With U12A U37C the self-cleavage was 0.727.
Variant U12A U37A has a self-cleavage of 0.918.
Variant A11U G41A has a self-cleavage of 0.747.
Variant A11U G41C has a self-cleavage of 0.374.
With A11U G17U the self-cleavage was 0.264.
For A11U G17C, the self-cleavage was 0.111.
In the case of A11U G17A, the self-cleavage is reported as 0.497.
Work on A11G U37C yielded a self-cleavage of 0.529.
Variant A11G U37G has a self-cleavage of 0.494.
Work on A11U G48C yielded a self-cleavage of 1.12.
For A11U G48A, the self-cleavage was 0.951.
In the case of A11U G48U, the self-cleavage is reported as 1.12.
A11U C26U gave a self-cleavage of 0.69.
A11U C14G showed a self-cleavage of 0.203.
A11U A32G showed a self-cleavage of 0.911.
A11U A32U showed a self-cleavage of 1.1.
U12A G36C showed a self-cleavage of 0.693.
U12A A23C showed a self-cleavage of 0.394.
For U12A A23G, the self-cleavage was 0.768.
Variant U12C C15U has a self-cleavage of 1.09.
Work on A11U U31A yielded a self-cleavage of 0.918.
Work on A11U U31G yielded a self-cleavage of 0.893.
Work on U12A U18C yielded a self-cleavage of 0.623.
U12A U18A showed a self-cleavage of 0.643.
A11U G29C gave a self-cleavage of 1.02.
Work on A11U G29U yielded a self-cleavage of 1.04.
U12C A35G showed a self-cleavage of 0.837.
With U12C A35U the self-cleavage was 0.91.
U12A C46U showed a self-cleavage of 0.977.
With U12A C27A the self-cleavage was 0.744.
U12A C27U gave a self-cleavage of 0.945.
Variant U12C A23C has a self-cleavage of 0.234.
Variant U12C A23U has a self-cleavage of 0.554.
In the case of U12A A30G, the self-cleavage is reported as 1.01.
With A11U C20A the self-cleavage was 0.178.
In the case of A11U G36U, the self-cleavage is reported as 0.849.
A11U G36C showed a self-cleavage of 0.573.
U12A G47C showed a self-cleavage of 0.751.
With U12A C19A the self-cleavage was 0.342.
In the case of U12C C14U, the self-cleavage is reported as 1.06.
U12A C20G gave a self-cleavage of 0.16.
U12A C20A showed a self-cleavage of 0.181.
U12A C26U showed a self-cleavage of 0.563.
U12A C26A showed a self-cleavage of 0.763.
In the case of U12C G38U, the self-cleavage is reported as 0.781.
For U12C G29U, the self-cleavage was 0.746.
With U12C G29C the self-cleavage was 0.877.
For U12A C14G, the self-cleavage was 0.0875.
U12A C14A showed a self-cleavage of 0.997.
In the case of A11U A30C, the self-cleavage is reported as 0.862.
U12A G45A gave a self-cleavage of 1.09.
In the case of U12A G45C, the self-cleavage is reported as 0.643.
A11U A23C showed a self-cleavage of 0.241.
In the case of A11U A23U, the self-cleavage is reported as 0.765.
U12A U31A showed a self-cleavage of 0.679.
In the case of U12A U31G, the self-cleavage is reported as 0.961.
U12A U31C showed a self-cleavage of 1.13.
U12C C20A showed a self-cleavage of 0.128.
U12C C20U showed a self-cleavage of 0.695.
Work on U12A G24U yielded a self-cleavage of 0.172.
For U12A G24C, the self-cleavage was 0.097.
Work on A11U G16C yielded a self-cleavage of 0.532.
In the case of A11U G16A, the self-cleavage is reported as 0.804.
Work on U12C A40C yielded a self-cleavage of 0.177.
U12C A40G showed a self-cleavage of 0.107.
U12C A40U showed a self-cleavage of 0.144.
For U12A G16C, the self-cleavage was 0.688.
A11U U12A showed a self-cleavage of 0.95.
For A11U U12C, the self-cleavage was 0.849.
Work on U12C C46G yielded a self-cleavage of 0.705.
With U12C C46A the self-cleavage was 0.903.
With A11U G44A the self-cleavage was 0.977.
Variant A11U A35U has a self-cleavage of 1.12.
Variant A11U A35C has a self-cleavage of 0.997.
A11U G42C showed a self-cleavage of 0.623.
Variant A11U G42U has a self-cleavage of 0.33.
Work on A11U G42A yielded a self-cleavage of 0.557.
With U12A A35U the self-cleavage was 1.06.
Work on A11U A34U yielded a self-cleavage of 0.974.
A11U A34G showed a self-cleavage of 1.07.
For A11U C27U, the self-cleavage was 0.894.
A11U C27G showed a self-cleavage of 0.104.
In the case of A11U C27A, the self-cleavage is reported as 0.66.
U12C G41A gave a self-cleavage of 0.577.
With U12C G41C the self-cleavage was 0.264.
A11U C15G gave a self-cleavage of 0.0907.
Work on A11U C15A yielded a self-cleavage of 0.62.
U12C U18G gave a self-cleavage of 0.0285.
For A11U G24U, the self-cleavage was 0.105.
A11U G24A gave a self-cleavage of 0.108.
Work on U12C G17U yielded a self-cleavage of 0.291.
Work on U12C G17C yielded a self-cleavage of 0.0944.
U12C C26G showed a self-cleavage of 0.179.
For U12A C15G, the self-cleavage was 0.17.
U12A C15A showed a self-cleavage of 0.901.
A11U G45A showed a self-cleavage of 1.13.
With A11U G13C the self-cleavage was 0.592.
U12C G45A showed a self-cleavage of 0.788.
Work on U12C A34C yielded a self-cleavage of 0.382.
Variant U12C G28U has a self-cleavage of 0.88.
Variant U12A A32C has a self-cleavage of 1.15.
With U12A A32G the self-cleavage was 1.12.
U12C C21A gave a self-cleavage of 0.124.
Variant U12A A22C has a self-cleavage of 1.08.
A11U A33C gave a self-cleavage of 0.909.
A11U A33G showed a self-cleavage of 0.839.
A11U A40U showed a self-cleavage of 0.142.
A11U A40C showed a self-cleavage of 0.161.
For A11U C25A, the self-cleavage was 0.139.
In the case of A11U C25U, the self-cleavage is reported as 1.03.
U12C G36A gave a self-cleavage of 0.679.
For U12A G13C, the self-cleavage was 0.811.
In the case of U12A G13A, the self-cleavage is reported as 0.89.
U12C G44C gave a self-cleavage of 0.932.
Variant U12C A22G has a self-cleavage of 0.307.
A11U G28U gave a self-cleavage of 0.968.
Work on A11U G28A yielded a self-cleavage of 1.02.
With U12A G28U the self-cleavage was 1.06.
With U12A G28C the self-cleavage was 1.02.
A11U A22G gave a self-cleavage of 0.399.
For A11U A22C, the self-cleavage was 1.17.
Work on U12A G17C yielded a self-cleavage of 0.114.
For U12C G16C, the self-cleavage was 0.482.
A11G U18C gave a self-cleavage of 0.382.
U12C G43C showed a self-cleavage of 0.145.
For U12A C25G, the self-cleavage was 0.423.
A11G U31G gave a self-cleavage of 1.1.
Variant A11G U31C has a self-cleavage of 0.736.
Work on A11G U31A yielded a self-cleavage of 0.348.
A11U C21A showed a self-cleavage of 0.114.
Work on A11U C21G yielded a self-cleavage of 0.0514.
